Legend:
[1] = tested on: O=C(O)CCCNC(=O)c1cc2cc(F)c(O)c(F)c2oc1=O; experiment: purified protein, by the assay type; conditions: other: ligation to LAP, 2 μM ligase, 600 μM LAP; pH 7.2
[2] = molecular target: biotinylated LAP-mCherry fusion protein; experiment: gel shift on SDS-PAGE of HEK cell lysate incubated with 5 µM streptavidin, in-gel mCherry fluorescence

| percent of LAP-mCherry shifted up to ~80 kD [2] | Substance | Km [1] | kcat [1] |
| --- | --- | --- | --- |
| – | E20G/W37TLplA (Escherichia coli K-12; E21G/W38T) | 17.5 ± 4.3 µM | 0.014 ± 0.001 s⁻¹ |
| 21% | streptavidin protein (from UniProt P22629 37-163) | – | – |
